T1: human CD37 (human (Homo sapiens), UniProt P11049 1-281)
T1 construct: Endogenous on Daudi cells, Raji cells and human blood B cells; also called Leukocyte Antigen CD37; GP52-40
T1 sequence: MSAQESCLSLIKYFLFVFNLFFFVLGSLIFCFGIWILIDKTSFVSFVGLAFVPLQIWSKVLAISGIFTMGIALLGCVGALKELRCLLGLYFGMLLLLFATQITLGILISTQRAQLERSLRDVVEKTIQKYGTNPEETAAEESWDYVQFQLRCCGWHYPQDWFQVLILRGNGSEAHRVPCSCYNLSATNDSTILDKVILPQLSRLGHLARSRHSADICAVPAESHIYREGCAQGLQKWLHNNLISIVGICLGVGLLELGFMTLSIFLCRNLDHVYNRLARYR

T2: cynomolgus monkey CD37 (cynomolgus monkey (Macaca fascicularis), UniProt P11049 1-281 (human entry))
T2 construct: also called mfCD37; cynomolgus CD37
T2 chain: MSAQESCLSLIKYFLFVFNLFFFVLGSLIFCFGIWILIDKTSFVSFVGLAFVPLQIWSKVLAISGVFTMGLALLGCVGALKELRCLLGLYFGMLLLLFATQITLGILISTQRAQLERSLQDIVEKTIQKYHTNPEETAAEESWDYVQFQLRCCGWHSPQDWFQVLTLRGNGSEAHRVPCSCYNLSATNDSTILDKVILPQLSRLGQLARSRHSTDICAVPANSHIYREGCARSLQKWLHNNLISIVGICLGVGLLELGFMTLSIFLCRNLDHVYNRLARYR

B1: bsIgG1-016-H5L2-LC90S-F405L-E430Gx010-H5L2-K409R-E430G (bispecific antibody)
heavy 1: not shown
light 1: DVVMTQSPSTLSASVGDRVTITCQASQNIDSNLAWYQQKPGKAPKFLIYYASNLPFGVPSRFKGSGSGTEFTLTISSLQPDDFATYYCQSADVGSTYVAAFGGGTKVEIKRTVAAPSVFIFPPSDEQLKSGTASVVCLLNNFYPREAKVQWKVDNALQSGNSQESVTEQDSKDSTYSLSSTLTLSKADYEKHKVYACEVTHQGLSSPVTKSFNRGEC
heavy 2: not shown
light 2: AYDMTQSPSTLSASVGDRVTITCQASQNIIDYLAWYQQKPGKAPKLLIHKASTLASGVPSRFKGSGSGTEFTLTISSLQPDDFATYYCQQGYSNSNIDNTFGGGTKVEIKRTVAAPSVFIFPPSDEQLKSGTASVVCLLNNFYPREAKVQWKVDNALQSGNSQESVTEQDSKDSTYSLSSTLTLSKADYEKHKVYACEVTHQGLSSPVTKSFNRGEC
notes: also called bispecific CD37 antibody
B2: bsIgG1-016-H5L2-LC90S-F405L-E430Gxb12-K409R-E430G (bispecific antibody)
heavy 1: not shown
light 1: B1 light 1
heavy 2: not shown
light 2: EIVLTQSPGTLSLSPGERATFSCRSSHSIRSRRVAWYQHKPGQAPRLVIHGVSNRASGISDRFSGSGSGTDFTLTITRVEPEDFALYYCQVYGASSYTFGQGTKLERKRTVAAPSVFIFPPSDEQLKSGTASVVCLLNNFYPREAKVQWKVDNALQSGNSQESVTEQDSKDSTYSLSSTLTLSKADYEKHKVYACEVTHQGLSSPVTKSFNRGEC
notes: also called antibody 016

Legend:
human CD37 [1] = target: T1, human CD37; test: flow cytometry, Alexa-488 labeled antibody on B cells in human whole blood; average of 6 donors
Protocol: (§1) Binding to human or cynomolgus monkey B cells was determined in a whole blood binding assay. Heparin-treated human blood from healthy volunteers was derived from UMC Utrecht (Utrecht, The Netherlands), hirudin-treated blood from cynomolgus monkeys was derived from Covance (Münster, Germany). Blood was aliquoted to wells of a 96-well round-bottom plate (Greiner Bio-one, cat. no. 65010; 35 μL/well). Red blood cells (RBC) were lysed by addition of 100 μL RBC lysis buffer (10 mM KHCO₃ [Sigma P9144], 0.1 mM EDTA [Fluka 03620] and […] NH₄CL [Sigma A5666]) and incubated on ice until RBC lysis was complete.
(§2) Cells were pelleted and washed twice in 150 μL FACS buffer and resuspended in 150 μL TO-PRO-3 (end concentration 0.2 μM; Molecular Probes, cat no. T3605). Samples were measured by flow cytometry using an LSRFortessa flow cytometer. Binding is expressed as geometric mean of A488 fluorescence intensity for viable TO-PRO-3⁻/CD14⁻/CD19⁺ B-cells (human) or viable TO-PRO-3⁻/CD14⁻/CD19⁺/CD20⁺ B-cells (cynomolgus monkey). Log-transformed data were analyzed using best-fit values of a non-linear dose-response fit in GraphPad PRISM.

cynomolgus monkey CD37 = target: T2, cynomolgus monkey CD37; test: flow cytometry, Alexa-488 labeled antibody on B cells in cynomolgus monkey whole blood; average of 4 animals
Protocol: as §1, §2

human CD37 [2] = target: T1, human CD37; test: flow cytometry on HEK293 cells expressing wild type CD37 or alanine mutants, Alexa488 antibody at 3 µg/mL
Protocol: The wild type CD37 and alanine mutants were expressed individually in FreeStyle HEK293 cells according to the manufacturer's instructions (Thermo Scientific). One day post transfection the cells were harvested. […] Cells were incubated for 1 hour at room temperature. Subsequently, cells were washed twice by adding 150 μL FACS buffer and removing the supernatant after centrifugation. Cells were resuspended in 20 μL fresh FACS buffer and stored at 4° C. until analysis by flow cytometry using an iQue screener (IntelliCyt). The entire experiment was performed 2 times.

Row | Binder | EC50 (human CD37 [1]) [µg/mL] | EC50 (cynomolgus monkey CD37) [µg/mL] | binding result (human CD37 [2])
1 | B1 | 0.85 | 0.63 | 
2 | B2 |  |  | binds
